According to the supplement of paper PMC9112550, “Optimization of the antimicrobial peptide Bac7 by deep mutational scanning” (BMC Biology, 2022):

Tested on: Escherichia coli TOP10
Experiment: shrunken log2 fold change of peptide-encoding DNA abundance (4.5 h post-induction vs induction); higher = less antimicrobial activity (less host growth inhibition)
Conditions: time post-induction: 4.5 h; library: site-saturation at positions 5, 18, 19, 20
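Note: peptides expressed intracellularly from a pBAD plasmid library in pooled LB shake-flask culture, induced with 0.3% L-arabinose, DNA abundance read by NGS, three biological replicates, DESeq2 with apeglm shrinkage.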

For RRIRCRPPRLPRPRPRPEDYPRP, the “shrunken log2 fold change” value was -0.304.
RRIRFRPPRLPRPRPRPDWQPRP was tested, and the “shrunken log2 fold change” value was 0.0911.
With RRIRYRPPRLPRPRPRPDHNPRP the “shrunken log2 fold change” value was -0.217.
For RRIRDRPPRLPRPRPRPNSKPRP, the “shrunken log2 fold change” value was -0.506.
In the case of RRIRIRPPRLPRPRPRPEVSPRP, the “shrunken log2 fold change” value is reported as 0.068.
RRIRHRPPRLPRPRPRPGPYPRP was tested, and the “shrunken log2 fold change” value was -0.226.
In the case of RRIRLRPPRLPRPRPRPYKIPRP, the “shrunken log2 fold change” value is reported as -0.0766.
RRIRSRPPRLPRPRPRPPVLPRP was tested, and the “shrunken log2 fold change” value was 0.0563.
In the case of RRIRERPPRLPRPRPRPGWHPRP, the “shrunken log2 fold change” value is reported as 0.027.
With RRIRMRPPRLPRPRPRPFICPRP the “shrunken log2 fold change” value was 0.0468.
With RRIRWRPPRLPRPRPRPFELPRP the “shrunken log2 fold change” value was -0.285.
For RRIRIRPPRLPRPRPRPTFYPRP, the “shrunken log2 fold change” value was -0.462.
With RRIRFRPPRLPRPRPRPQVDPRP the “shrunken log2 fold change” value was -0.412.
RRIRNRPPRLPRPRPRPDFYPRP was tested, and the “shrunken log2 fold change” value was -0.24.
RRIRLRPPRLPRPRPRPIVTPRP was tested, and the “shrunken log2 fold change” value was 2.68.
For RRIRERPPRLPRPRPRPMCCPRP, the “shrunken log2 fold change” value was -0.113.
For RRIRKRPPRLPRPRPRPFADPRP, the “shrunken log2 fold change” value was 0.00902.
For RRIRLRPPRLPRPRPRPNSHPRP, the “shrunken log2 fold change” value was -0.404.
With RRIRFRPPRLPRPRPRPEGLPRP the “shrunken log2 fold change” value was -0.0574.
With RRIRHRPPRLPRPRPRPEIHPRP the “shrunken log2 fold change” value was 0.0389.
RRIRARPPRLPRPRPRPFFVPRP was tested, and the “shrunken log2 fold change” value was 0.149.
RRIRRRPPRLPRPRPRPIKCPRP was tested, and the “shrunken log2 fold change” value was -0.17.
In the case of RRIRVRPPRLPRPRPRPMVFPRP, the “shrunken log2 fold change” value is reported as 0.0611.
RRIRLRPPRLPRPRPRPICHPRP was tested, and the “shrunken log2 fold change” value was -0.368.
With RRIRPRPPRLPRPRPRPMLEPRP the “shrunken log2 fold change” value was 0.0664.
For RRIRPRPPRLPRPRPRPKRTPRP, the “shrunken log2 fold change” value was 0.0584.
With RRIRFRPPRLPRPRPRPVQSPRP the “shrunken log2 fold change” value was -0.16.
RRIRKRPPRLPRPRPRPWPCPRP was tested, and the “shrunken log2 fold change” value was 0.161.
For RRIRQRPPRLPRPRPRPRQHPRP, the “shrunken log2 fold change” value was -0.141.
RRIRQRPPRLPRPRPRPMEFPRP was tested, and the “shrunken log2 fold change” value was 0.0663.
RRIRIRPPRLPRPRPRPSWFPRP was tested, and the “shrunken log2 fold change” value was -0.529.
RRIRSRPPRLPRPRPRPLVMPRP was tested, and the “shrunken log2 fold change” value was -0.316.
With RRIRARPPRLPRPRPRPGNRPRP the “shrunken log2 fold change” value was 0.0467.
With RRIRYRPPRLPRPRPRPQLTPRP the “shrunken log2 fold change” value was -0.0894.
With RRIRFRPPRLPRPRPRPYTMPRP the “shrunken log2 fold change” value was -1.06.
With RRIRERPPRLPRPRPRPGRQPRP the “shrunken log2 fold change” value was 0.0676.
In the case of RRIRERPPRLPRPRPRPELNPRP, the “shrunken log2 fold change” value is reported as -0.119.
With RRIRDRPPRLPRPRPRPINQPRP the “shrunken log2 fold change” value was -0.389.
With RRIRARPPRLPRPRPRPGWSPRP the “shrunken log2 fold change” value was 0.57.
RRIRYRPPRLPRPRPRPLQNPRP was tested, and the “shrunken log2 fold change” value was 0.0956.
In the case of RRIRKRPPRLPRPRPRPRHQPRP, the “shrunken log2 fold change” value is reported as 1.82.
In the case of RRIRVRPPRLPRPRPRPNPTPRP, the “shrunken log2 fold change” value is reported as -0.325.
In the case of RRIRNRPPRLPRPRPRPKRSPRP, the “shrunken log2 fold change” value is reported as 0.115.
With RRIRNRPPRLPRPRPRPAVPPRP the “shrunken log2 fold change” value was -0.165.
In the case of RRIRDRPPRLPRPRPRPKQAPRP, the “shrunken log2 fold change” value is reported as 0.0366.
RRIRKRPPRLPRPRPRPCDEPRP was tested, and the “shrunken log2 fold change” value was 0.121.
RRIRARPPRLPRPRPRPPTIPRP was tested, and the “shrunken log2 fold change” value was 0.0349.
In the case of RRIRRRPPRLPRPRPRPTEPPRP, the “shrunken log2 fold change” value is reported as 0.4.
For RRIRARPPRLPRPRPRPGWWPRP, the “shrunken log2 fold change” value was 0.235.
With RRIRNRPPRLPRPRPRPNSLPRP the “shrunken log2 fold change” value was -0.335.
For RRIRVRPPRLPRPRPRPIAAPRP, the “shrunken log2 fold change” value was 0.454.
RRIRPRPPRLPRPRPRPWMQPRP was tested, and the “shrunken log2 fold change” value was 0.0452.
For RRIRWRPPRLPRPRPRPEIGPRP, the “shrunken log2 fold change” value was 0.0225.
With RRIRQRPPRLPRPRPRPSSSPRP the “shrunken log2 fold change” value was -1.39.
With RRIRFRPPRLPRPRPRPIHEPRP the “shrunken log2 fold change” value was -0.169.
RRIRCRPPRLPRPRPRPCWSPRP was tested, and the “shrunken log2 fold change” value was -0.352.
RRIRGRPPRLPRPRPRPYCWPRP was tested, and the “shrunken log2 fold change” value was 0.0345.
RRIRHRPPRLPRPRPRPQNFPRP was tested, and the “shrunken log2 fold change” value was -0.522.
For RRIRNRPPRLPRPRPRPDARPRP, the “shrunken log2 fold change” value was 0.222.
RRIRWRPPRLPRPRPRPLMDPRP was tested, and the “shrunken log2 fold change” value was 0.185.
With RRIRIRPPRLPRPRPRPMHHPRP the “shrunken log2 fold change” value was -0.4.
In the case of RRIRLRPPRLPRPRPRPDFYPRP, the “shrunken log2 fold change” value is reported as -0.324.
With RRIRTRPPRLPRPRPRPPERPRP the “shrunken log2 fold change” value was 0.351.
For RRIRMRPPRLPRPRPRPTPAPRP, the “shrunken log2 fold change” value was 2.13.
RRIRCRPPRLPRPRPRPNVRPRP was tested, and the “shrunken log2 fold change” value was -0.000423.
For RRIRDRPPRLPRPRPRPQLYPRP, the “shrunken log2 fold change” value was -0.162.
In the case of RRIRYRPPRLPRPRPRPVVEPRP, the “shrunken log2 fold change” value is reported as -0.34.
With RRIRHRPPRLPRPRPRPGLWPRP the “shrunken log2 fold change” value was 0.0565.
RRIRHRPPRLPRPRPRPHITPRP was tested, and the “shrunken log2 fold change” value was -0.857.
RRIRSRPPRLPRPRPRPGDQPRP was tested, and the “shrunken log2 fold change” value was 0.0164.
For RRIRYRPPRLPRPRPRPYWCPRP, the “shrunken log2 fold change” value was -0.0606.
For RRIRDRPPRLPRPRPRPSPYPRP, the “shrunken log2 fold change” value was -1.07.
In the case of RRIRLRPPRLPRPRPRPDQLPRP, the “shrunken log2 fold change” value is reported as -0.0435.
In the case of RRIRARPPRLPRPRPRPWYQPRP, the “shrunken log2 fold change” value is reported as -0.287.
RRIRHRPPRLPRPRPRPFSGPRP was tested, and the “shrunken log2 fold change” value was 0.136.
RRIRIRPPRLPRPRPRPKLSPRP was tested, and the “shrunken log2 fold change” value was 0.144.
For RRIRGRPPRLPRPRPRPYWLPRP, the “shrunken log2 fold change” value was -0.0478.
In the case of RRIRLRPPRLPRPRPRPYYVPRP, the “shrunken log2 fold change” value is reported as -0.0539.
With RRIRKRPPRLPRPRPRPLRTPRP the “shrunken log2 fold change” value was 0.727.
RRIRVRPPRLPRPRPRPHVAPRP was tested, and the “shrunken log2 fold change” value was -0.0516.
RRIRWRPPRLPRPRPRPTGTPRP was tested, and the “shrunken log2 fold change” value was 0.288.
In the case of RRIRERPPRLPRPRPRPQYGPRP, the “shrunken log2 fold change” value is reported as -0.0797.
RRIRCRPPRLPRPRPRPHVQPRP was tested, and the “shrunken log2 fold change” value was -0.224.
RRIRKRPPRLPRPRPRPFDSPRP was tested, and the “shrunken log2 fold change” value was -0.0504.
With RRIRVRPPRLPRPRPRPKHRPRP the “shrunken log2 fold change” value was 0.356.
With RRIRMRPPRLPRPRPRPCRWPRP the “shrunken log2 fold change” value was 0.00911.
With RRIRPRPPRLPRPRPRPICFPRP the “shrunken log2 fold change” value was -0.189.
With RRIRFRPPRLPRPRPRPGDGPRP the “shrunken log2 fold change” value was 0.264.
With RRIRTRPPRLPRPRPRPAKQPRP the “shrunken log2 fold change” value was -0.0125.
In the case of RRIRERPPRLPRPRPRPNQMPRP, the “shrunken log2 fold change” value is reported as -0.0733.
With RRIRVRPPRLPRPRPRPAEPPRP the “shrunken log2 fold change” value was 0.218.
For RRIRCRPPRLPRPRPRPWHLPRP, the “shrunken log2 fold change” value was -0.221.
With RRIRYRPPRLPRPRPRPIECPRP the “shrunken log2 fold change” value was 0.00468.
RRIRPRPPRLPRPRPRPQLWPRP was tested, and the “shrunken log2 fold change” value was 0.221.
RRIRCRPPRLPRPRPRPTYPPRP was tested, and the “shrunken log2 fold change” value was -0.274.
In the case of RRIRPRPPRLPRPRPRPDTSPRP, the “shrunken log2 fold change” value is reported as -0.738.
For RRIRYRPPRLPRPRPRPKGFPRP, the “shrunken log2 fold change” value was -0.0319.
In the case of RRIRTRPPRLPRPRPRPPLEPRP, the “shrunken log2 fold change” value is reported as 0.531.
In the case of RRIRERPPRLPRPRPRPCTQPRP, the “shrunken log2 fold change” value is reported as -0.00926.
For RRIRYRPPRLPRPRPRPEGAPRP, the “shrunken log2 fold change” value was 0.295.
In the case of RRIRRRPPRLPRPRPRPEYYPRP, the “shrunken log2 fold change” value is reported as -0.324.
For RRIRIRPPRLPRPRPRPWMKPRP, the “shrunken log2 fold change” value was -0.305.
For RRIRQRPPRLPRPRPRPWKGPRP, the “shrunken log2 fold change” value was 0.013.
With RRIRQRPPRLPRPRPRPCFYPRP the “shrunken log2 fold change” value was -0.269.
RRIRGRPPRLPRPRPRPGKCPRP was tested, and the “shrunken log2 fold change” value was -0.0229.
RRIRCRPPRLPRPRPRPSDFPRP was tested, and the “shrunken log2 fold change” value was -0.203.
In the case of RRIRARPPRLPRPRPRPTIKPRP, the “shrunken log2 fold change” value is reported as 0.0966.
In the case of RRIRCRPPRLPRPRPRPTPVPRP, the “shrunken log2 fold change” value is reported as 0.714.
RRIRFRPPRLPRPRPRPHFNPRP was tested, and the “shrunken log2 fold change” value was -0.692.
In the case of RRIRARPPRLPRPRPRPMWRPRP, the “shrunken log2 fold change” value is reported as 0.248.
With RRIRQRPPRLPRPRPRPTKPPRP the “shrunken log2 fold change” value was 0.0859.
In the case of RRIRSRPPRLPRPRPRPDPYPRP, the “shrunken log2 fold change” value is reported as -0.312.
In the case of RRIRYRPPRLPRPRPRPYLYPRP, the “shrunken log2 fold change” value is reported as -0.109.
For RRIRSRPPRLPRPRPRPTPWPRP, the “shrunken log2 fold change” value was 0.349.
With RRIRWRPPRLPRPRPRPAVRPRP the “shrunken log2 fold change” value was -0.0873.
For RRIRSRPPRLPRPRPRPWSEPRP, the “shrunken log2 fold change” value was -0.196.
For RRIRKRPPRLPRPRPRPPENPRP, the “shrunken log2 fold change” value was 1.15.
For RRIRWRPPRLPRPRPRPYKLPRP, the “shrunken log2 fold change” value was -0.327.
With RRIRPRPPRLPRPRPRPDFFPRP the “shrunken log2 fold change” value was -0.0853.
RRIRERPPRLPRPRPRPYKTPRP was tested, and the “shrunken log2 fold change” value was -0.00814.
For RRIRLRPPRLPRPRPRPWADPRP, the “shrunken log2 fold change” value was -0.118.
In the case of RRIRDRPPRLPRPRPRPIWCPRP, the “shrunken log2 fold change” value is reported as -0.0176.
RRIRPRPPRLPRPRPRPDIIPRP was tested, and the “shrunken log2 fold change” value was 0.00942.
For RRIRSRPPRLPRPRPRPMHFPRP, the “shrunken log2 fold change” value was 0.0521.
With RRIRSRPPRLPRPRPRPQPTPRP the “shrunken log2 fold change” value was 0.447.
